Results taken from US5840283A, “Composition and method for treating diseased nails” (Sorenson Pharmaceutical, Inc., priority 1997, dated 1998).
Counter-ions that a name gives are not always drawn. Like-named read-outs stand apart in the source and are kept apart here.

Columns and labels:
[1] = assay type: in vitro ADME, human
Description: The efficacy of the nail-permeable medication means of the present invention was first evaluated by conducting comparative studies comprising application of a selected drug applied to a human nail in vitro as compared to the application of the nail-permeable medication means containing the same drug applied to a human nail in vitro. Specifically, these tests were conducted using diseased human toenails which were surgically removed from patients as a means of curing the disease condition of the nail.
Each nail was maintained in an environment simulating an in vivo condition. Each nail was maintained suspended on a plastic holder which allowed air to circulate about the nail. Each nail holder was retained in a separate enclosed system the temperature and humidity within which could be carefully regulated to simulate the human body. These artificial in vivo environments provided the diffusion cells in which the studies were conducted.
Human nails were prepared by cleaning and, in some instances, grinding the nail down to establish a more even thickness across the nail. The nails were then hydrated using distilled water to render the nails pliable for placement in the diffusion cell. […] A Teflon® donor compartment 16 was positioned over the nail 12 and the nail saddle 14 was joined to the donor compartment 16 by placement of a silicone sealant about the edges of the nail 12 and donor compartment 16. After the silicone cured, water leakage was tested and the nails were resealed if necessary. […] Attempts were made to use an appropriate size "O" ring 18 to form the seal between the nail saddle 14 and the donor compartment 16.
The cell 10 was used by adding solvent, usually de-ionized water, until the solvent came into contact with the nail. […] When semi-solid treatment formulations were used, excess product was removed from the nail by cleansing with cotton swabs after twenty-four hours and prior to application of another nail treatment or pre-treatment product. Pretreatment products (e.g., hydrating fluid, etc.) and treatment products (i.e., nail-permeable medication means) were changed or supplemented daily throughout the experimental period.
After addition of the pretreatment or treatment product, the opening of the donor cell 10 was occluded with silicone cement/sealant. The possibility of entrapped air at the interface of the receiver solvent and nail was checked daily, as well as at the beginning of the experiment. To control this problem, care was taken to be certain that no bubbles were present at the time solvents were added and the nail placed in the saddle. Bubbles may not be visible after the apparatus is fully assembled. Also, dissolved gases tend to separate into bubbles and rise to the nail/receiver interface during the process.
Ciclopirox olamine (6-Cyclohexyl 1-hydroxy 4-methyl 2(1H)-pyridone, 2-aminoethanol salt [Bertrafen]), an antimycotic drug, was used in the nail-permeable medication means of the invention for the purposes of testing and analysis. Three analytical methods are identified in the literature which appear to be acceptable means of determining drug diffusion rates. One method requires the use of radio-labeled drug, and another method utilizes LC (liquid chromatography) equipment. The third method, described by Belliardo, et al., in "Micro-liquid chromatography method for the determination of ciclopirox olamine after pre-column derivatization in topical formulations" Jr. Chromatography, Vol. 553 (1991), p. 41-5, was the method used here. However, because of lack of access to a micro-LC system, lesser concentrations of ciclopirox olamine (<1-2 μg/ml of diffusion fluid) were unquantifiable. Lesser concentrations were sometimes seen as small irregularities on the HPLC (high-pressure liquid chromatography) tracing, but the identity was not confirmed by computer. […]

[2] = tested on: T. rubrum; settings: cited from earlier work
[3] = pilot clinical study in patients with subungual onychomycosis; assay type: in vivo, human; settings: arm 3; patient's assessment of clinical results 1-5, 5 positive
Description: Patients enrolled in the study were diagnosed with subungual onychomycosis from a positive culture of a target nail. The target nail was that nail most severely involved with symptoms of onychomycosis. […] Patients with a history of non-response to standard antimycotic treatments, or severe abnormalities or deformities of the assessed fingers or toes, were excluded.
The protocol called for an eleven month treatment period.
Patients visited their physicians on a monthly basis for evaluation. Clinical measurements and mycological cultures were taken on alternating visits. Adverse events were defined as any abnormal inflammation of the tissues surrounding the nail from the patient's pretreatment condition and were checked by their physician or reported as they occurred. Patient evaluations of clinical treatment were obtained by a survey of patients. Ease of application, convenience of application, and patient's assessments of the clinical results were rated by patients on a scale of 1 to 5 with 1 indicating visible effect and 5 being positive. In addition, patients were also asked to respond to treatment compliance by reporting the number of days per week which they applied their medication as prescribed.
Therefore, patients treated in arm 3 (antifungal only) of the study were used as the baseline upon which clinical and mycologic results were measured.

[4] = duration of papain activity after mixture with water; assay type: physicochemical; settings: certain activators present
Text: The nail-permeable medication means also includes a medicament which is especially selected for treatment of a particular disease condition. The concentration of medicament in the nail-permeable means is sufficient to effectively control or eliminate the disease condition. […] It is notable in that respect that many medications have a water base, or have a water component in addition to certain activators (e.g. thiols and mercaptans which include cysteine and a chelating agent, such as EDTA [ethylenediaminetetraacetic acid]) which, when admixed with the enzymatic composition, may begin to degrade the enzyme and/or reduce its effectiveness. However, admixture of a water-based or water-containing medicament with a proteolytic enzyme will typically degrade the enzymatic component slowly enough that significant penetration of the nail still takes place and the medicament is successfully delivered to the disease site. Generally, papain and other proteolytic enzymes are effective for approximately twenty-four hours after mixture with water where certain activators are present. In the absence of such activators, papain may remain active for up to two years.

[5] = cited from earlier work
[6] = tested on: casein substrate; settings: cited from earlier work

Cc1cc(C2CCCCC2)n(O)c(=O)c1 [ciclopirox olamine, 6-Cyclohexyl 1-hydroxy 4-methyl 2(1H)-pyridone, 2-aminoethanol salt]
amount of drug diffused compared with soaked nails [1]: less than when the nails were soaked with the papain-plus-activators | diffusion of drug through the nail, control without proteolytic enzyme component [1]: no diffusion of drug through the nail | drug diffusion for the seven-day period [1]: 2 to 6 µg/mL | effect of increasing papain concentration on amount of drug diffused [1]: did not increase the amount of drug diffused | effect of soaking time on amount of drug diffused [1]: the amount of drug that diffused through the treated nails also increased | ANALYSES (ciclopirox diffused through nail) ([1]; pH 10): 0 µg/mL | minimum inhibitory concentration (MIC) [2]: 10 µg/mL | Results (1-5) [3]: 1

B1: papain: proteolytic enzyme (protein, UniProt P00784 134-345, looked up)
Papain: IPEYVDWRQKGAVTPVKNQGSCGSCWAFSAVVTIEGIIKIRTGNLNEYSEQELLDCDRRSYGCNGGYPWSALQLVAQYGIHYRNTYPYEGVQRYCRSREKGPYAAKTDGVRQVQPYNEGALLYSIANQPVSVVLEAAGKDFQLYRGGIFVGPCGNKVDHAVAAVGYGPNYILIKNSWGTGWGENGYIRIKRGTGNSYGVCGLYTSSFYPVKN
diffusion results by papain concentration [1]: optimal diffusion results | duration of effectiveness after mixture with water [4]: approximately twenty-four

B2: Sigma papain, product no. P4762: Sigma Co., product no. P4762, 2× crystallized, lyophilized powder (protein, UniProt P00784 134-345, looked up)
Papain: IPEYVDWRQKGAVTPVKNQGSCGSCWAFSAVVTIEGIIKIRTGNLNEYSEQELLDCDRRSYGCNGGYPWSALQLVAQYGIHYRNTYPYEGVQRYCRSREKGPYAAKTDGVRQVQPYNEGALLYSIANQPVSVVLEAAGKDFQLYRGGIFVGPCGNKVDHAVAAVGYGPNYILIKNSWGTGWGENGYIRIKRGTGNSYGVCGLYTSSFYPVKN
modifications: lyophilized powder
notes: Sigma Co., product no; P4762, 2× crystallized, lyophilized powder
papain activity ([5]; Sigma product no. P4762, 2× crystallized, lyophilized powder): 16-20 BAEE units/mg

B3: ICN papain 2× crystallized powder: ICN Company papain, 2× crystallized powder (protein, UniProt P00784 134-345, looked up)
Papain: IPEYVDWRQKGAVTPVKNQGSCGSCWAFSAVVTIEGIIKIRTGNLNEYSEQELLDCDRRSYGCNGGYPWSALQLVAQYGIHYRNTYPYEGVQRYCRSREKGPYAAKTDGVRQVQPYNEGALLYSIANQPVSVVLEAAGKDFQLYRGGIFVGPCGNKVDHAVAAVGYGPNYILIKNSWGTGWGENGYIRIKRGTGNSYGVCGLYTSSFYPVKN
modifications: crystallized powder
notes: ICN Company papain, 2× crystallized powder
papain activity ([5]; ICN papain forms): 10-20 BAEE Units of activity

B4: USP papain: papain of United States Pharmacopeia standard (protein, UniProt P00784 134-345, looked up)
Papain: IPEYVDWRQKGAVTPVKNQGSCGSCWAFSAVVTIEGIIKIRTGNLNEYSEQELLDCDRRSYGCNGGYPWSALQLVAQYGIHYRNTYPYEGVQRYCRSREKGPYAAKTDGVRQVQPYNEGALLYSIANQPVSVVLEAAGKDFQLYRGGIFVGPCGNKVDHAVAAVGYGPNYILIKNSWGTGWGENGYIRIKRGTGNSYGVCGLYTSSFYPVKN
modifications: USP standard
papain activity ([6]; USP papain): at least 6,000 USP units per mg

B5: Marcor papain: Marcor Company (Hackensack, N.J.) papain (protein, UniProt P00784 134-345, looked up)
Papain: IPEYVDWRQKGAVTPVKNQGSCGSCWAFSAVVTIEGIIKIRTGNLNEYSEQELLDCDRRSYGCNGGYPWSALQLVAQYGIHYRNTYPYEGVQRYCRSREKGPYAAKTDGVRQVQPYNEGALLYSIANQPVSVVLEAAGKDFQLYRGGIFVGPCGNKVDHAVAAVGYGPNYILIKNSWGTGWGENGYIRIKRGTGNSYGVCGLYTSSFYPVKN
modifications: commercial Marcor preparation
papain activity ([6]; Marcor papain, footnote of EXAMPLE I): 30,000 USP Units/m activity | papain activity ([6]; Marcor papain): 30,000 USP units/mg

B6: ICN papain 2× crystallized suspension: ICN Company papain, 2× crystallized suspension form (protein, UniProt P00784 134-345, looked up)
Papain: IPEYVDWRQKGAVTPVKNQGSCGSCWAFSAVVTIEGIIKIRTGNLNEYSEQELLDCDRRSYGCNGGYPWSALQLVAQYGIHYRNTYPYEGVQRYCRSREKGPYAAKTDGVRQVQPYNEGALLYSIANQPVSVVLEAAGKDFQLYRGGIFVGPCGNKVDHAVAAVGYGPNYILIKNSWGTGWGENGYIRIKRGTGNSYGVCGLYTSSFYPVKN
modifications: crystallized suspension
notes: ICN Company papain, 2× crystallized suspension form
papain activity ([5]; ICN papain forms): 15-40 BAEE Units of activity

B7: Sigma papain: papain product of Sigma, approximately eighty percent protein (protein, UniProt P00784 134-345, looked up)
Papain: IPEYVDWRQKGAVTPVKNQGSCGSCWAFSAVVTIEGIIKIRTGNLNEYSEQELLDCDRRSYGCNGGYPWSALQLVAQYGIHYRNTYPYEGVQRYCRSREKGPYAAKTDGVRQVQPYNEGALLYSIANQPVSVVLEAAGKDFQLYRGGIFVGPCGNKVDHAVAAVGYGPNYILIKNSWGTGWGENGYIRIKRGTGNSYGVCGLYTSSFYPVKN
modifications: commercial preparation
notes: papain product of Sigma, approximately eighty percent protein
papain activity ([5]; 25° C., pH 6.2, Sigma papain product): 10-20 BAEE Units per milligram of enzyme-containing material
